Like-named read-outs stand apart in the source and are kept apart here. Ends that are not written are not given here.

The results in this text go back to patent publication US20230357447A1 (JANUX THERAPEUTICS, published 2023).

Experiment [1] has as its target Anti-CD28 scFv (VH-linker 1-VL). In words: phage ELISA: biotinylated anti-CD28 scFv on neutravidin plate, clonal phage supernatant, anti-M13-HRP.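 Note: before phage addition, wells were preincubated either with soluble CD28 protein in blocking buffer or with blocking buffer only.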 For orientation: In an ELISA, binding on a coated surface is turned into a signal by an enzyme label.
Experiment [2] shares this target. Nature of the experiment: phage ELISA: biotinylated anti-CD28 scFv on neutravidin plate, clonal phage supernatant, anti-M13-HRP; wells pre-incubated with soluble CD28 (competitor).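 Note: wells pretreated with soluble CD28 protein in blocking buffer before phage addition, no wash in between, reference wells got blocking buffer only, bound phage detected after washing.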
Experiment [3] concerns the target T1, Ab-12, anti-PD-L1xCD28 non-masked antibody in Vh format.
T1 construct: also called PDL1xCD28 non-masked (Vh)
In words: competition ELISA: peptide titrated against 5 nM Ab-12; binding of Ab-12 to captured biotinylated CD28 antigen is read.

Experiment [4] has as its target T1, Ab-12, anti-PD-L1xCD28 non-masked …. Described as above. The source holds these as a separate data set.

Take MDWCPMSRWAFCFD (Clonal phage from the Peptide-9 library) [Phage-438]: in experiment [1], the “Phage binding ELISA CD28 scFv signal” value turned out to be 1. For the same molecule, in experiment [2], the “Phage binding ELISA CD28 scFv signal in presence of CD28” value stood at 0.115.
Turning to IVWCPTTQWNRCAT (Clonal phage from the Peptide-9 library) [Phage-434], the “Phage binding ELISA CD28 scFv signal” value in experiment [1] stood at 0.067. Moreover, the “Phage binding ELISA CD28 scFv signal in presence of CD28” value in experiment [2] was determined as 0.083.
For MDWCPRDRWDVCYY (Clonal phage from the Peptide-9 library) [Phage-447], in experiment [1], the “Phage binding ELISA CD28 scFv signal” value was determined as 0.074. The “Phage binding ELISA CD28 scFv signal in presence of CD28” value in experiment [2] was 0.073.

B1: Peptide-41 (peptide)
peptide: MDWCPRDLWVHCFA
modifications: cysteine pairing not given here; also: biotinylated, site not given here
notes: Synthetic biotinylated peptide loaded on streptavidin biosensors
Molecule B1 showed a half-inhibitory concentration (IC50) in experiment [3] of 150 nM.

B2: Peptide-35 (peptide)
peptide: MDWCPLHMWHECFS
modifications: cysteine pairing not given here; also: biotinylated, site not given here
notes: as for B1
As to B2, in experiment [4], the IC50 worked out at 1270 nM.
With MDWCPRDRWVDCYA (Clonal phage from the Peptide-9 library) [Phage-435], the “Phage binding ELISA CD28 scFv signal” value in experiment [1] was 1.48. Besides, the “Phage binding ELISA CD28 scFv signal in presence of CD28” value in experiment [2] is 0.403.
As to MDWCPRDWWHMCFN (Clonal phage from the Peptide-9 library) [Phage-452], the “Phage binding ELISA CD28 scFv signal” value in experiment [1] was determined as 2.12. Besides, the “Phage binding ELISA CD28 scFv signal in presence of CD28” value in experiment [2] came out at 0.243.
Take IYWCPIDRWNDCYN (Clonal phage from the Peptide-9 library) [Phage-442]: the “Phage binding ELISA CD28 scFv signal” value in experiment [1] was found to be 0.867. The “Phage binding ELISA CD28 scFv signal in presence of CD28” value in experiment [2] was found to be 0.164.
As for MDWCPRDRWADCFN (Clonal phage from the Peptide-9 library) [Phage-436], the “Phage binding ELISA CD28 scFv signal” value in experiment [1] amounted to 1.35. Further, the “Phage binding ELISA CD28 scFv signal in presence of CD28” value in experiment [2] is 0.08.
On to MDWCPRDRWDDCFN (Clonal phage from the Peptide-9 library) [Phage-446], for which, in experiment [1], the “Phage binding ELISA CD28 scFv signal” value was determined as 0.45. The “Phage binding ELISA CD28 scFv signal in presence of CD28” value in experiment [2] was 0.077.
For MDWCPVDRWADCFN (Clonal phage from the Peptide-9 library) [Phage-437], the “Phage binding ELISA CD28 scFv signal” value in experiment [1] stood at 1.16. For the same molecule, the “Phage binding ELISA CD28 scFv signal in presence of CD28” value in experiment [2] is 0.315.
On to MDWCPRDRWDDCFF (Clonal phage from the Peptide-9 library) [Phage-441], for which the “Phage binding ELISA CD28 scFv signal” value in experiment [1] was 0.899. The “Phage binding ELISA CD28 scFv signal in presence of CD28” value in experiment [2] was determined as 0.183.
Consider MDWCPRDRWVDCFN (Clonal phage from the Peptide-9 library) [Phage-440], for which the “Phage binding ELISA CD28 scFv signal” value in experiment [1] was determined as 0.911. For the same molecule, the “Phage binding ELISA CD28 scFv signal in presence of CD28” value in experiment [2] came out at 0.132.
On the same counts, the results for MDWCPMTRWNDCYF (Clonal phage from the Peptide-9 library) [Phage-443] are 0.671 and 0.078.
For MDWCPRFWWHECYA (Clonal phage from the Peptide-9 library) [Phage-451], the “Phage binding ELISA CD28 scFv signal” value in experiment [1] came to 2.4. Besides, the “Phage binding ELISA CD28 scFv signal in presence of CD28” value in experiment [2] worked out at 0.503.

B3: Peptide-42 (peptide)
peptide: MDWCPRDMWDECFA
modifications: cysteine pairing not given here; also: biotinylated, site not given here
notes: as for B1
In experiment [3], B3 showed a 50% inhibitory concentration (IC50) of 440 nM.

B4: Peptide-33 (peptide)
peptide: MDWCPIYLWSECFN
modifications: cysteine pairing not given here; also: biotinylated, site not given here
notes: as for B1
The molecule B4 came in with an IC50 in experiment [4] of 160 nM.

B5: Peptide-31 (peptide)
peptide: MDWCPIDLWNECFF
modifications: cysteine pairing not given here; also: biotinylated, site not given here
notes: as for B1
For B5, the half-inhibitory concentration (IC50) in experiment [4] is 1770 nM.

B6: Peptide-37 (peptide)
peptide: MDWCPRDLWDLCFA
modifications: cysteine pairing not given here; also: biotinylated, site not given here
notes: as for B1
The molecule B6 had a half-maximal inhibitory concentration (IC50) in experiment [4] of 1110 nM.
In the case of MDWCPRDRWDVCFA (Clonal phage from the Peptide-9 library) [Phage-439], in experiment [1], the “Phage binding ELISA CD28 scFv signal” value stood at 0.924. Also, the “Phage binding ELISA CD28 scFv signal in presence of CD28” value in experiment [2] was 0.096.
For MDWCPRARWHDCFF (Clonal phage from the Peptide-9 library) [Phage-445], in experiment [1], the “Phage binding ELISA CD28 scFv signal” value was found to be 0.497. Further, the “Phage binding ELISA CD28 scFv signal in presence of CD28” value in experiment [2] came to 0.138.

B7: Peptide-38 (peptide)
peptide: MDWCPRDLWHECFA
modifications: cysteine pairing not given here; also: biotinylated, site not given here
notes: as for B1
In the case of B7, the IC50 in experiment [4] turned out to be 350 nM.

B8: Peptide-47 (peptide)
peptide: MDWCPRSLWHECFA
modifications: cysteine pairing not given here; also: biotinylated, site not given here
notes: as for B1
In experiment [3], B8 returned an IC50 of 450 nM.

B9: Peptide-39 (peptide)
peptide: MDWCPRDLWHLCFS
modifications: cysteine pairing not given here; also: biotinylated, site not given here
notes: as for B1
The molecule B9 displayed an IC50 in experiment [4] of 480 nM.

B10: Peptide-34 (peptide)
peptide: MNWCPKDIWYLCFN
modifications: cysteine pairing not given here; also: biotinylated, site not given here
notes: as for B1
With B10, the IC50 in experiment [4] was found to be 1410 nM.

B11: Peptide-40 (peptide)
peptide: MDWCPRDLWSECFF
modifications: cysteine pairing not given here; also: biotinylated, site not given here
notes: as for B1
Take B11: in experiment [3], the IC50 came out at 250 nM.

B12: Peptide-36 (peptide)
peptide: MDWCPLYLWNECFN
modifications: cysteine pairing not given here; also: biotinylated, site not given here
notes: as for B1
Turning to B12, in experiment [4], the 50% inhibitory concentration (IC50) worked out at 400 nM.
Consider EDWCPTDVWPYCFS (Clonal phage from the Peptide-9 library) [Phage-450], for which the “Phage binding ELISA CD28 scFv signal” value in experiment [1] is 0.711. Moreover, in experiment [2], the “Phage binding ELISA CD28 scFv signal in presence of CD28” value came to 0.157.

B13: Peptide-32 (peptide)
peptide: MDWCPIHLWHVCFN
modifications: cysteine pairing not given here; also: biotinylated, site not given here
notes: as for B1
Regarding B13, the concentration for half-maximal inhibition (IC50) in experiment [4] was 970 nM.
Consider MDWCPSDYWYVCFA (Clonal phage from the Peptide-9 library) [Phage-453], for which the “Phage binding ELISA CD28 scFv signal” value in experiment [1] was 0.707. Besides, in experiment [2], the “Phage binding ELISA CD28 scFv signal in presence of CD28” value was determined as 0.08.
As for MVDCPLISFDECLA (Clonal phage from the Peptide-9 library) [Phage-449], in experiment [1], the “Phage binding ELISA CD28 scFv signal” value worked out at 0.07. The “Phage binding ELISA CD28 scFv signal in presence of CD28” value in experiment [2] amounted to 0.076.

Usually IC50 stands for the midpoint of a concentration-inhibition curve. A higher IC50 goes with weaker potency.
